Reference: the supplement of paper PMC7877785
± gives the uncertainty stated by the source.

Assay: self-splicing fitness, log relative to wild type (ln ratio); higher = more splicing; Tetrahymena group I intron in knt gene, E. coli kanamycin selection, DiMSum; sequences stand for … in CUCUCU…GGAGGGAAAAGUUAUCAGGCAUGCACCUGGUAGCUAGUCUUUAAACCAAUAGAUUGCAUCGGUUUAAAAGGCAAGACCGUCAAAUUGCGGGAAAGGGGUCAACAGCCGUUCAGUACCAAGUCUCAGGGGAAACUUUGAGAUGGCCUUGCAAAGGGUAUGGUAAUAAGCUGACGGACAUGGUCCUAACCACGCAGCCAAGUCCUAAGUCAACAGAUCUUCUGUUGAUAUGGAUGCAGUUCACAGACUAAAUGUCGGUCGGGGAAGAUGUAUUCUUCUCAUAAGAUAUAGUCGGACCUCUCCUUAAUGGGAGCUAGCGGAUGAAGUGAUGCAACACUGGAGCCGCUGGGAACUAAUUUGUAUGCGAAAGUAUAUUGAUUAGUUUUGGAGUACUCGUGGUCG
Procedure, shortened: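 The eight P1ex-region nucleotides of an intron in the knt kanamycin-resistance gene on pET-22b(+) were all randomised and the library put into E. coli BL21(DE3). Six replicate transformations were grown overnight at 37°C or 30°C on LB agar with or without 25 μg/mL kanamycin, together with 100 μg/mL carbenicillin, 50 μM IPTG and 0.2% rhamnose. Colonies were pooled and amplicon-sequenced on an Illumina HiSeq 2500. Fitness from DiMSum is the error-weighted combination of wild-type-normalised replicate fold changes, kanamycin over none.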

Sequence	self-splicing fitness (ln) (30 °C)	self-splicing fitness (ln) (37 °C)
CACAAGCAAUAUUACGGCGG	-0.406 ± 0.042	-0.181 ± 0.052
CACAAGCAAUAUUACGGGAC	-3.48 ± 0.19	-2.86 ± 0.2
CACAAGCAAUAUUACGGGUU	-2.26 ± 0.068	-1.52 ± 0.083
CACAAGCAAUAUUACGUCAU	-3.45 ± 0.14	-2.78 ± 0.15
CACCAGCAAUAUUACGAAAC		-2.12 ± 0.31
CACCAGCAAUAUUACGACAG	0.251 ± 0.06	0.634 ± 0.083
CACCAGCAAUAUUACGACCU	-3.45 ± 0.17	-1.35 ± 0.17
CACCAGCAAUAUUACGACGG	-0.253 ± 0.078	0.0217 ± 0.091
CACCAGCAAUAUUACGAGCG	-0.154 ± 0.066	0.288 ± 0.086
CACCAGCAAUAUUACGAGUG	-4.21 ± 0.18	-2.76 ± 0.17
CACCAGCAAUAUUACGCCGG	-2.23 ± 0.15	-0.937 ± 0.14
CACCAGCAAUAUUACGCGAC	-4.31 ± 0.2	-2.89 ± 0.23
CACCAGCAAUAUUACGCGGG	-3.44 ± 0.16	-2.4 ± 0.15
CACCAGCAAUAUUACGCGUA	-0.717 ± 0.061	-0.165 ± 0.066
CACCAGCAAUAUUACGCGUU	-2.15 ± 0.062	-0.539 ± 0.067
CACCAGCAAUAUUACGGACU	-2.98 ± 0.11	-2 ± 0.11
CACCAGCAAUAUUACGGAGC	-2.79 ± 0.13	-1.58 ± 0.13
CACCAGCAAUAUUACGGCUU	-1.91 ± 0.087	-0.758 ± 0.093
CACCAGCAAUAUUACGGGCG	-1.81 ± 0.053	-0.295 ± 0.065
CACCAGCAAUAUUACGGUUC	-2.02 ± 0.065	-1.25 ± 0.085
CACCAGCAAUAUUACGUCAA	-3.64 ± 0.42	-2.31 ± 0.19
CACCAGCAAUAUUACGUGUC	-3.8 ± 0.09	-3.28 ± 0.11
CACCAGCAAUAUUACGUUGU	-3.58 ± 0.14	-2.29 ± 0.14
CACGAGCAAUAUUACGAAGC		-1.41 ± 0.26
CACGAGCAAUAUUACGCAUU	-4.65 ± 0.41	-1.95 ± 0.3

Sequence	self-splicing fitness (ln) (30 °C)	self-splicing fitness (ln) (37 °C)
CACGAGCAAUAUUACGCCUC	-3.79 ± 0.26	-1.37 ± 0.23
CACGAGCAAUAUUACGCCUU	-2.3 ± 0.2	-2.76 ± 0.4
CACGAGCAAUAUUACGCGAA	-2.93 ± 0.28	-2.1 ± 0.26
CACGAGCAAUAUUACGGACU	-3.12 ± 0.22	-1.44 ± 0.25
CACGAGCAAUAUUACGGAUU	-3.86 ± 0.3	-2.47 ± 0.26
CACGAGCAAUAUUACGGUGA	-3.17 ± 0.23	-2.98 ± 0.19
CACGAGCAAUAUUACGUAAG	-3.62 ± 0.14	-1.82 ± 0.11
CACGAGCAAUAUUACGUAAU	-3.8 ± 0.39	-2 ± 0.27
CACGAGCAAUAUUACGUGCA	-3.55 ± 0.18	-3.24 ± 0.23
CACUAGCAAUAUUACGAACG	-0.448 ± 0.071	0.647 ± 0.11
CACUAGCAAUAUUACGAAGG	-1.65 ± 0.1	-0.781 ± 0.15
CACUAGCAAUAUUACGACAC	-2.65 ± 0.22	-1.69 ± 0.24
CACUAGCAAUAUUACGACAU	-3.209 ± 0.019	-1.97 ± 0.034
CACUAGCAAUAUUACGACUC	-1.68 ± 0.21	-2.63 ± 0.36
CACUAGCAAUAUUACGAGAC	-3.77 ± 0.46	
CACUAGCAAUAUUACGAUAC	-3.41 ± 0.28	-2.81 ± 0.38
CACUAGCAAUAUUACGAUAU	-4.57 ± 0.34	-2.17 ± 0.2
CACUAGCAAUAUUACGAUGA	-1.85 ± 0.16	-1.01 ± 0.14
CACUAGCAAUAUUACGCAAU	-1.48 ± 0.15	-3.09 ± 0.35
CACUAGCAAUAUUACGCAUA	-2.75 ± 0.2	-2.83 ± 0.24
CACUAGCAAUAUUACGCAUC	-4.23 ± 0.43	-3.53 ± 0.37
CACUAGCAAUAUUACGCCCC	-0.891 ± 0.38	-0.252 ± 0.47
CACUAGCAAUAUUACGCCGC		-2.58 ± 0.5
CACUAGCAAUAUUACGCCUG	-0.103 ± 0.15	-0.344 ± 0.14
CACUAGCAAUAUUACGCUAG	-3.17 ± 0.26	-2.41 ± 0.27

Sequence	self-splicing fitness (ln) (30 °C)	self-splicing fitness (ln) (37 °C)
CACUAGCAAUAUUACGCUAU	-3.92 ± 0.3	-2.38 ± 0.23
CACUAGCAAUAUUACGCUGA	-2.58 ± 0.23	-1.51 ± 0.19
CACUAGCAAUAUUACGCUUC	-3.74 ± 0.3	-3.2 ± 0.4
CACUAGCAAUAUUACGCUUU	-4.28 ± 0.42	-1.57 ± 0.2
CACUAGCAAUAUUACGGAGA		-2.39 ± 0.22
CACUAGCAAUAUUACGGAUC	-1.79 ± 0.19	
CACUAGCAAUAUUACGGCAG	-0.257 ± 0.049	0.189 ± 0.066
CACUAGCAAUAUUACGGGCA	-1.91 ± 0.21	-1.71 ± 0.21
CACUAGCAAUAUUACGGGCU	-4.24 ± 0.39	-3.52 ± 0.33
CACUAGCAAUAUUACGGGUU	-2.05 ± 0.076	-1.28 ± 0.095
CACUAGCAAUAUUACGGUAG	-1.99 ± 0.1	-0.969 ± 0.094
CACUAGCAAUAUUACGGUGG	-2.3 ± 0.067	-0.616 ± 0.075
CACUAGCAAUAUUACGGUUG	-1.98 ± 0.087	-1.38 ± 0.098
CACUAGCAAUAUUACGUAAU	-3.08 ± 0.22	-2.54 ± 0.2
CACUAGCAAUAUUACGUAUG	-1.82 ± 0.061	-0.818 ± 0.068
CACUAGCAAUAUUACGUCCC	-2.5 ± 0.34	-2.38 ± 0.33
CACUAGCAAUAUUACGUGGA	-3.76 ± 0.32	-2.44 ± 0.14
CACUAGCAAUAUUACGUGGG	-3.99 ± 0.2	-3.1 ± 0.22
CACUAGCAAUAUUACGUGUA	-2 ± 0.11	-1.47 ± 0.12
CACUAGCAAUAUUACGUGUU	-4.69 ± 0.23	-2.88 ± 0.16
CACUAGCAAUAUUACGUUGG	-2.27 ± 0.11	-2.03 ± 0.16
CAGAAGCAAUAUUACGACAC		-2.1 ± 0.29
CAGAAGCAAUAUUACGACUC	-0.803 ± 0.069	-0.342 ± 0.095
CAGAAGCAAUAUUACGAUGG	-0.534 ± 0.064	-0.254 ± 0.078
CAGAAGCAAUAUUACGCAGC	-3.43 ± 0.23	-2.35 ± 0.24

Sequence	self-splicing fitness (ln) (30 °C)	self-splicing fitness (ln) (37 °C)
CAGAAGCAAUAUUACGCCGU	-3.06 ± 0.21	-1.94 ± 0.23
CAGAAGCAAUAUUACGCCUU	-1.78 ± 0.087	-0.677 ± 0.11
CAGAAGCAAUAUUACGCGCC	-2.83 ± 0.25	-1.34 ± 0.18
CAGAAGCAAUAUUACGCGGA	-3.15 ± 0.15	-3.11 ± 0.17
CAGAAGCAAUAUUACGGAUA	-2.48 ± 0.13	-1.43 ± 0.11
CAGAAGCAAUAUUACGGCCA	-1.5 ± 0.26	-1.83 ± 0.21
CAGAAGCAAUAUUACGGCUG	-2.29 ± 0.19	-2.49 ± 0.23
CAGAAGCAAUAUUACGGGCU	-3.96 ± 0.24	-1.83 ± 0.16
CAGAAGCAAUAUUACGGUAC	-4.59 ± 0.28	-1.72 ± 0.21
CAGAAGCAAUAUUACGUAAU	-3.4 ± 0.15	-2.85 ± 0.21
CAGAAGCAAUAUUACGUCCA	-1.68 ± 0.14	-1.44 ± 0.21
CAGAAGCAAUAUUACGUCUC	-1.79 ± 0.07	-0.536 ± 0.084
CAGAAGCAAUAUUACGUGCG	-0.578 ± 0.07	0.0457 ± 0.099
CAGAAGCAAUAUUACGUUUU	-3.33 ± 0.14	-3.58 ± 0.19
CAGCAGCAAUAUUACGAAUA	-2.35 ± 0.13	-1.9 ± 0.12
CAGCAGCAAUAUUACGAAUG	-1.69 ± 0.061	0.012 ± 0.083
CAGCAGCAAUAUUACGAGAA		-3.16 ± 0.37
CAGCAGCAAUAUUACGAGGG	-3.15 ± 0.097	-1.12 ± 0.093
CAGCAGCAAUAUUACGAUUA	-1.77 ± 0.1	-1 ± 0.11
CAGCAGCAAUAUUACGCCAC	-4.15 ± 0.26	-3.31 ± 0.29
CAGCAGCAAUAUUACGCCCG	0.0522 ± 0.12	0.33 ± 0.12
CAGCAGCAAUAUUACGCGAC	-2.71 ± 0.39	-0.925 ± 0.25
